In US6120992, “Use of immobilized mismatch binding protein for detection of mutations and polymorphisms, and allele identification in a diseased human” (ValiGene Corporation):
Residue numbers refer to the chain shown, from its start.

Experiments:
[1] = target: T1, MutS (Escherichia coli, UniProt P23909 P23909:1-853); experiment: immobilized MutS; settings: tags: immobilized on nitrocellulose, PVDF, nylon or magnetic beads, label: 5' biotin on first strand
T1 sequence: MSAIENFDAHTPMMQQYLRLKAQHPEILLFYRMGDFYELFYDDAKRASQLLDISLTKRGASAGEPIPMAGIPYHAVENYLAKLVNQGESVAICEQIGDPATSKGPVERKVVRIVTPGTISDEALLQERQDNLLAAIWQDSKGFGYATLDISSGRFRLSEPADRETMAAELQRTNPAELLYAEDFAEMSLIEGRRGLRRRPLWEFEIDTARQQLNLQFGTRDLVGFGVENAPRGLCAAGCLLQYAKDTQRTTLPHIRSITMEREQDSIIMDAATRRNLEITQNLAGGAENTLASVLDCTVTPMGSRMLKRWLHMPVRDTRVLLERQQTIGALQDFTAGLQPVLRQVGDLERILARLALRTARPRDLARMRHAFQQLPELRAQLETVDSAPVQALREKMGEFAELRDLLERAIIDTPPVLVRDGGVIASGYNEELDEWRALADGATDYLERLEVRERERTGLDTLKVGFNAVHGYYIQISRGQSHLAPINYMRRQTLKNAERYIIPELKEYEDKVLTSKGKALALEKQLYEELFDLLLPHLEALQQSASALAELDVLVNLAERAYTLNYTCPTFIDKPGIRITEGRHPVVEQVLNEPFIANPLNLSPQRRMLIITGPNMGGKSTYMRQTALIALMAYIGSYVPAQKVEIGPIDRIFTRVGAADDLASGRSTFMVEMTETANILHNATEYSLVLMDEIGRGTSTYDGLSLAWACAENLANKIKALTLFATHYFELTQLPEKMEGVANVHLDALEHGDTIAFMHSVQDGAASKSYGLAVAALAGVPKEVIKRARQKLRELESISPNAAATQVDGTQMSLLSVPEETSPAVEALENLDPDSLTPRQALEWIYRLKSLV
Protocol: (§1) Immobilization of MutS on Solid Supports and Biotin Detection Assay (a) Nitrocellulose A nitrocellulose sheet (0.45 μm, Schleicher and Schull, BA85) was pre-wet by floating in reaction buffer (20 mM Tris HCl, pH 7.6; 5 mM MgCl_2, 0.1 mM DTT, 0.01 mM EDTA). MutS (500 ng/well) in reaction buffer was bound to the nitrocellulose in a 48 well slot blotting apparatus (Hoefer Scientific Instruments) over 3 sheets of blotting paper (Schleicher and Schull GB002). Reaction buffer alone was added to "no MutS" wells. After 20 min. at room temperature, nitrocellulose was blocked with 200 μl/well of 3% horse radish peroxidase (HRP)-free bovine serum albumin (BSA). After 1 hour, excess blocking solution was pulled through with vacuum and DNA (1 ng and 10 ng) was added in 20 μl reaction buffer containing 3% BSA. After 30 min. at room temperature, wells were washed 5 times with 100 μl reaction buffer. The wash fluids were decanted rather than pulled through with vacuum.
(§2) The presence of biotin-labeled DNA bound on the nitrocellulose sheet was detected by visualizing the binding of streptavidin to biotin. 100 μl streptavidin-conjugated HRP (0.05 μg/ml in reaction buffer+BSA) was added to each well. After 20 min. at room temperature, any remaining solution was decanted and the wells washed 5 times with 100 μl reaction buffer as above.

[2] = target: T1, MutS; experiment: immobilized MutS, 1-10 ng; detected equally to G//T; settings: tags: immobilized on nitrocellulose, PVDF, nylon or magnetic beads; label: 5' biotin on first strand; T//G mismatch
Protocol: as §1, §2

[3] = target: T1, MutS; experiment: immobilized MutS; settings: tags: immobilized on nitrocellulose, PVDF, nylon or magnetic beads, label: biotin
Protocol: as §1
DNA was prepared as described in the Examples above. 500 ng *E. coli* MutS was bound to nitrocellulose as described above and the experiment carried out as in the previous Examples. Self-annealed single stranded triplet repeat sequences of CGG and CTG formed double-stranded mismatch-containing DNA duplexes which were recognized by immobilized MutS.

[4] = target: T1, MutS; experiment: immobilized MutS; strong signal; settings: tags: immobilized on nitrocellulose, PVDF, nylon or magnetic beads; label: 5' biotin on first strand; G//G mismatch
Protocol: as §1, §2

[5] = target: T1, MutS; experiment: filter; soluble MutS, 1 or 10 ng DNA; 1.8-fold at 0.1 ng; settings: tags: immobilized on nitrocellulose, PVDF, nylon or magnetic beads; label: 5' biotin on first strand; G//T mismatch
Protocol: The binding of ^32P-labeled heteroduplexes to MutS in solution was tested in a standard filter binding assay essentially as described by Jiricny, J. et al., Nucl. Acids Res. 16:7843–7853 (1988). The oligonucleotides were labeled as above and annealed with a 10-fold excess of unlabeled "complementary" oligonucleotides to yield a homoduplex and a heteroduplex containing a single G//T mismatch. For this assay, 500 ng of MutS in reaction buffer (20 µl) was incubated for 30 minutes at room temperature with the two types of duplexes. The mixture was spotted onto pre-wet nitrocellulose filters, which were then washed 5 times with 2 ml reaction buffer by vacuum filtration and dried at 80° C. for 15 minutes. Each filter was placed in 3 ml scintillation fluid and the radioactivity determined by scintillation counting. Background cpm (no MutS) were subtracted from the cpm bound by MutS. Means of duplicate or triplicate determinations are shown below.

[6] = target: T1, MutS; experiment: immobilized MutS; C//T less well detected than T//C; settings: tags: immobilized on nitrocellulose, PVDF, nylon or magnetic beads; label: 5' biotin on first strand; C//T mismatch
Protocol: as §1, §2

[7] = self-annealed duplex with mismatches

B1: A//C mismatch 30mer (dsDNA)
DNA 1: GCACCTGACTCCTGAGGAGAAGTCTGCCGT
DNA 2: ACGGCAGACTTCTCCCCAGGAGTCAGGTGC
Question: Does B1 bind ([1]; A//C mismatch)?
Answer: Result: binds

B2: A//A mismatch 30mer (dsDNA)
DNA 1: B1 DNA 1
DNA 2: B1 DNA 2 with C16A
Question: Does B2 bind ([1]; A//A mismatch)?
Answer: Result: binds

B3: T//T mismatch 30mer (dsDNA)
DNA 1: B1 DNA 1 with A15T
DNA 2: B1 DNA 2 with C16T
Question: Does B3 bind ([1]; T//T mismatch)?
Answer: Result: binds

B4: T//G mismatch 30mer (dsDNA)
DNA 1: B1 DNA 1 with A15T
DNA 2: B1 DNA 2 with C16G
Question: Does B4 bind [2]?
Answer: Result: binds

B5: (CAG)10 (ssDNA)
DNA: CAGCAGCAGCAGCAGCAGCAGCAGCAGCAG
Question: Does B5 bind [3]?
Answer: Result: no binding

B6: (CGG)10 (structured_DNA)
DNA: CGGCGGCGGCGGCGGCGGCGGCGGCGGCGG
Question: Does B6 bind [3, 7]?
Answer: Result: binds

B7: G//G mismatch 30mer (dsDNA)
DNA 1: B1 DNA 1 with A15G
DNA 2: B1 DNA 2 with C16G
Question: Does B7 bind [4]?
Answer: Result: binds

B8: G//T mismatch 30mer (dsDNA)
DNA 1: B1 DNA 1 with A15G
DNA 2: B1 DNA 2 with C16T
Question: How did the binding signal [5] turn out when B8 was run?
Answer: The binding signal was 5.2 fold over G:C homoduplex.

B9: (CCG)10 (ssDNA)
DNA: CCGCCGCCGCCGCCGCCGCCGCCGCCGCCG
Question: Does B9 bind [3]?
Answer: Result: no binding

B10: (CTG)10 (structured_DNA)
DNA: CTGCTGCTGCTGCTGCTGCTGCTGCTGCTG
Question: Does B10 bind [3, 7]?
Answer: Result: binds

B11: C//T mismatch 30mer (dsDNA)
DNA 1: B1 DNA 1 with A15C
DNA 2: B1 DNA 2 with C16T
Question: Does B11 bind [6]?
Answer: Result: binds

B12: A//G mismatch 30mer (dsDNA)
DNA 1: B1 DNA 1
DNA 2: B1 DNA 2 with C16G
Question: Does B12 bind ([1]; A//G mismatch)?
Answer: Result: binds

B13: G//A mismatch 30mer (dsDNA)
DNA 1: B1 DNA 1 with A15G
DNA 2: B1 DNA 2 with C16A
Question: Does B13 bind ([1]; G//A mismatch)?
Answer: Result: binds
